Test [1] has as its target mEAG1 intrinsic-ligand peptide (mEAG1#696–702), fluorescein-labeled (mouse). The test can be described thus: fluorescence polarisation. On the technique in general: In fluorescence polarisation assays a small probe gives low polarisation when free and higher when bound to something large.
Test [2] concerns the target hERG1 intrinsic-ligand peptide (hERG1#857–863), fluorescein-labeled (human) (UniProt Q12809). The experiment in a line: fluorescence polarisation.
Another test concerns zELKΔ740–742 channels. The class given is cell-based, Danio rerio. As to conditions: inside-out patches, X. laevis oocytes, with or without MgATP.

Where no end group is shown, it is not given here.

UniProt Q12809, sequence (Q12809 whole entry, looked up, tested part not stated): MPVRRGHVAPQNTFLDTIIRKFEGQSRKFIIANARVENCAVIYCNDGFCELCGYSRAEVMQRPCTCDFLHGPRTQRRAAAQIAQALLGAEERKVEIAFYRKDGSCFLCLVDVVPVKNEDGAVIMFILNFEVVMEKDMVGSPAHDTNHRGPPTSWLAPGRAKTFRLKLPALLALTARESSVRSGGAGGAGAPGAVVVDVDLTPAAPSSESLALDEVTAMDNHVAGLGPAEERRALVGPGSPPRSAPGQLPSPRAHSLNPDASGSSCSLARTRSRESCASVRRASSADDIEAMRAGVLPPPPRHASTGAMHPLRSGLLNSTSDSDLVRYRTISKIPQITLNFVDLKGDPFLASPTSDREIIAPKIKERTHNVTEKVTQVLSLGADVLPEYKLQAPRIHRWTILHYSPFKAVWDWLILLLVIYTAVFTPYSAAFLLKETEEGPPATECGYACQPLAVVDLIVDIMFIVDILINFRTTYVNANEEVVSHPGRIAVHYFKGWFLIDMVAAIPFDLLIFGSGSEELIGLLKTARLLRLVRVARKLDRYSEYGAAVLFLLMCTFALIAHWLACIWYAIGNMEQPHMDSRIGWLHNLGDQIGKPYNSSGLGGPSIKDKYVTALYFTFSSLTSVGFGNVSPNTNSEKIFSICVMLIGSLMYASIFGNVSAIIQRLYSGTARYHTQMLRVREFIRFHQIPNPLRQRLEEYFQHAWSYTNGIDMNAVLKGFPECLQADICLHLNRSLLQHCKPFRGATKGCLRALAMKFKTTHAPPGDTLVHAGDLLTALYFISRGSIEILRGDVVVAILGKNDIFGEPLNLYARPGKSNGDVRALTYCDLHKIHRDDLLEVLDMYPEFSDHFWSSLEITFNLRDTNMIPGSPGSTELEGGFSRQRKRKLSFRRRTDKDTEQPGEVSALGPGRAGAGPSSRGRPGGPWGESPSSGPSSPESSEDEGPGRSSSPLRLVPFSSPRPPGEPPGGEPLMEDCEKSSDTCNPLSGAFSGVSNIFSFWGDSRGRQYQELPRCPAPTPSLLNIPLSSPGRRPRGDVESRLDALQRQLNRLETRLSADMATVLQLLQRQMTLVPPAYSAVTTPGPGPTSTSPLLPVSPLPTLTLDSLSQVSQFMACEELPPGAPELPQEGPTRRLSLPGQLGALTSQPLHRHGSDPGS

With “MBP–C-linker/CNBHD of zELK channel (Q543–L750), wild type (domain or fragment)”, the Kd – broadly, a measure of binding affinity in units of concentration – in test [1] came to 85 µM. For the substance “MBP–C-linker/CNBHDΔ740–742 of zELK channel (Q543–L750 without Y740–L742) (domain or fragment)”, the values for the Kd in test [2] and in test [1] were 90 µM and 37 µM, respectively. Regarding “hERG1 peptide: intrinsic-ligand peptide from hERG1 channels (#857–863) (EITFNLR; also: fluorescein label, position not given here)”, the “modulation of zELKΔ740–742 channels regardless of MgATP” value in the test on zELKΔ740–742 channels is “did not produce an appreciable amount of modulation”.

These data come from PMC5881448 (The Journal of General Physiology, 2018).
